According to US20210198319A1, “CYTOTOXIC PEPTIDES AND CONJUGATES THEREOF” (AEBI LTD., priority 2017, published 2021):
No end group written: not given here.

Tests used:
[1] = target: human eukaryotic elongation factor 2 (eEF2) (Homo sapiens, UniProt P13639); assay: Cyclic peptide library tested for binding to eEF2; details: after optimization process
Source text: Using the technique described in WO 2007/010525, a library of cyclic peptides was generated and tested for binding to human eukaryotic elongation factor 2 (eEF2).

cells = assay: Toxicity to cells of library peptides; assay type: cell-based; details: cyclic peptide library, after optimization process

## Cys-Ser-Ala-Arg-Trp-Gly-Pro-Ile-Met-Pro-Trp-Cys (CSARWGPIMPWC; also: cyclic, ring type not given here) [GW2]
[1]
  binding to eEF2 (rank among library peptides): most potent peptide
cells
  toxicity to cells (rank among library peptides): most potent peptide
